Laboratory results published in patent US20040137588A1 (published 2004).

B1: purified refolded dimeric VEGF-B167 (ligand, human, UniProt P49765-2 22-188, looked up, not shown: small tags and cut ends)
chain: PVSQPDAPGHQRKVVSWIDVYTRATCQPREVVVPLTVELMGTVAKQLVPSCVTVQRCGGCCPDDGLECVPTGQHQVRMQILMIRYPSSQLGEMSLEEHSQCECRPKKKDSAVKPDSPRPLCPRCTQHHQRPDPRTCRCRCRRRSFLRCQGRGLELNPDTCRCRKLRR
notes: mature

Key:
[1] = target: chimeric receptor consisting of the extracellular and membrane domain of VEGFR1 fused to the cytoplasmic domain of gp130, on 293A12 cells (UniProt P17948); test: cell-based or functional assay
[2] = target: T1, VEGF-R1/Fc chimeric protein (R&D systems) (human, UniProt P17948 27-687, limits assumed); test: competition ELISA on captured VEGF-R1/Fc (100 ng/ml); competitor VEGF-A165 at 10 ng/ml, detected with biotinylated anti-VEGF-A165
T1 construct: Bought from R&D systems; also called VEGF-R1/Flt-1; soluble VEGFR1-Ig chimeric protein; not shown: human immunoglobulin Fc domain
Method: 3. […] Plates were incubated for 90 min at room temperature.
5. VEGF-A₁₆₅ was added (indicated concentration in Buffer 20) and incubated at room temp for 1 hr. In competition experiments, VEGF-B₁₆₇ was added 30 min prior to the addition of VEGF-A₁₆₅. A range of VEGF-B₁₆₇ concentrations were used to compete with VEGF-A₁₆₅ at a final concentration of 10 ng/ml.
7. Biotinylated anti-VEGF-A₁₆₅ (10 ng/ml in Buffer 20, 100 μl) was added and incubated for 1 hr.

[3] = target: T2, VEGF-R2/Fc chimeric protein (R&D systems) (human, UniProt P35968 20-764); test: SPR (Biacore 2000), VEGF-B167 immobilised, receptor injected
T2 construct: Bought from R&D systems; not shown: human immunoglobulin Fc domain
Method: For control purposes binding of the receptors to VEGF-A₁₆₅ was also monitored. Both VEGF-B₁₆₇ and VEGF-A₁₆₅ were individually immobilised to a sensorchip using NHS/EDC chemistry according to the manufacturer's instructions. Briefly, 35 μl of NHS and EDC was injected onto the sensorchip at a flow rate of 5 μl/min to activate the sensor surface and enable covalent coupling of either VEGF-A₁₆₅ or VEGF-B₁₆₇. […] Post coupling, diaminoethane (50 mM, pH 9.0) was used to block any unbound activated sites on the sensor surface. Concentrated dimeric VEGF-B₁₆₇ (200 μg/ml) was diluted (1:10) in 20 mM sodium acetate and immobilized onto a separate channel on the sensorchip. Post coupling, diaminoethane (50 mM, pH 9.0) was used to block any unbound activated sites on the sensor surface.
At the end of each run, the surface of the sensorchip was regenerated using 2 cycles of phosphoric acid (0.1 M, 30 μl) at a flow of 50 μl/min. […] Both were diluted into 0.1% w/v BSA in PBS as a stock solution (50 μg/ml, storage −20° C.).

Sequence of chimeric receptor consisting of the extracellular and membrane domain of VEGFR1 fused to the cytoplasmic domain of gp130, on 293A12 cells (P17948 other isoform, or with tags, fused parts or gaps mutant limits assumed): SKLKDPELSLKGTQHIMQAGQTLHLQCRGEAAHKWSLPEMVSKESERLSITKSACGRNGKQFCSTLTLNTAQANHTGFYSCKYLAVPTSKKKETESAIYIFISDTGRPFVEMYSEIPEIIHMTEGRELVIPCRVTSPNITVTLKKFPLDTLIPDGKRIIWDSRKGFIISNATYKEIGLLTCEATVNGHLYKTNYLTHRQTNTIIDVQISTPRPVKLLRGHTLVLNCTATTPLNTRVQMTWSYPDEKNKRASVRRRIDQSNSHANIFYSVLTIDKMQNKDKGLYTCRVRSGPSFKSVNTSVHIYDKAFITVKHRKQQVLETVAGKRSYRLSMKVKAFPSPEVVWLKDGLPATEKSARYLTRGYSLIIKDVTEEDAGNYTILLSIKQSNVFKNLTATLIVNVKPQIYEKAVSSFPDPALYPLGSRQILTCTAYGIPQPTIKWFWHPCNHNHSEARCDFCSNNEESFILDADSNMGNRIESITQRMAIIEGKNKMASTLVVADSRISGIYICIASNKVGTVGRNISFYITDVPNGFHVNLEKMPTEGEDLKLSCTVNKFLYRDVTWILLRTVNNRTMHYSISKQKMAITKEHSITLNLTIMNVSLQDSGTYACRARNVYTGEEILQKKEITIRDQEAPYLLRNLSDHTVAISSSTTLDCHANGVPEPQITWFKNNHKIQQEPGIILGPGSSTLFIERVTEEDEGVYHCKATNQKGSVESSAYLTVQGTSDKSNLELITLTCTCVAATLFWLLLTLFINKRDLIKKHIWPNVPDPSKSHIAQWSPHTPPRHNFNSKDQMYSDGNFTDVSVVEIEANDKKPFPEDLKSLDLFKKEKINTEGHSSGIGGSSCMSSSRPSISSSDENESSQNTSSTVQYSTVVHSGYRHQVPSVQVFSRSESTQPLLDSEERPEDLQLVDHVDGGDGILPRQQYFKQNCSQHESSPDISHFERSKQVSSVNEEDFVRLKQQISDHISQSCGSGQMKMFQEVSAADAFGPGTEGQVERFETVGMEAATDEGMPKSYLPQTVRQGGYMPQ
T2 sequence (P35968 20-764 limits assumed, change not shown): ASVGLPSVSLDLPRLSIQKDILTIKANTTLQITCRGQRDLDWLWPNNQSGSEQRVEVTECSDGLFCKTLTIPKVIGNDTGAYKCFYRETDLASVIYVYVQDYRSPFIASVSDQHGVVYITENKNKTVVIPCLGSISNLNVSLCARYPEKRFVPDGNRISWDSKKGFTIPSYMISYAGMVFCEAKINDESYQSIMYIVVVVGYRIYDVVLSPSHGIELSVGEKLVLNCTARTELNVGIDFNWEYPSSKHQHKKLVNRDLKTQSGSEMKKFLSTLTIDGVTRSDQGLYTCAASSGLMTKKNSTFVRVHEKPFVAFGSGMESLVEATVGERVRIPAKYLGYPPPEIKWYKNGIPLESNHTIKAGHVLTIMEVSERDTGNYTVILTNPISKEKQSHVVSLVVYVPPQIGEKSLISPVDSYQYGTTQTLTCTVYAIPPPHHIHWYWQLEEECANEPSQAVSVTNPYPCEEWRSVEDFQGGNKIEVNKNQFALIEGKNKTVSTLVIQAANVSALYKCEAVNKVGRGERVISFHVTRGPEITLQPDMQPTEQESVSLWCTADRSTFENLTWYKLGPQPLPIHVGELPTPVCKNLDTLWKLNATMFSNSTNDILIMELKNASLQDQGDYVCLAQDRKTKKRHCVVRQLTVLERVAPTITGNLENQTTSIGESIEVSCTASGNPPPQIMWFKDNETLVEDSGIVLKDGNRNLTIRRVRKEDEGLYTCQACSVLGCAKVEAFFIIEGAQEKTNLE
T1 sequence (P17948 27-687 limits assumed, change not shown): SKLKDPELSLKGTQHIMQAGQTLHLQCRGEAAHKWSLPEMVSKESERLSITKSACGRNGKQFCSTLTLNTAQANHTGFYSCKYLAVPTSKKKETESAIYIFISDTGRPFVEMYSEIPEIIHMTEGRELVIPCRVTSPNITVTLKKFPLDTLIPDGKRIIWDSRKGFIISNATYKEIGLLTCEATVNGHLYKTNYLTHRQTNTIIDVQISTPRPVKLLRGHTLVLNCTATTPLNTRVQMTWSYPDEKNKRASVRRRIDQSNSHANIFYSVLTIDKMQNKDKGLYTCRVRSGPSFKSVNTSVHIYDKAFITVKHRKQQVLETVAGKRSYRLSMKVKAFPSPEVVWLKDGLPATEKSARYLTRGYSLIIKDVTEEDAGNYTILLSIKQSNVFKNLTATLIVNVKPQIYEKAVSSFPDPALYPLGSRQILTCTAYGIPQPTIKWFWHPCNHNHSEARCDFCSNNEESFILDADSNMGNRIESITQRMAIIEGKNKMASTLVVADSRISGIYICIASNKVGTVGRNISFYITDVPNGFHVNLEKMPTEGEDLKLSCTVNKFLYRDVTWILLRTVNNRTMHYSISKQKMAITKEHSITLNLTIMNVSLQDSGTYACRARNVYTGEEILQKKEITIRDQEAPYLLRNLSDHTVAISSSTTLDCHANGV

| Molecule | ED50 of luciferase production in 293A12 cells with the chimeric receptor [1] | IC50 [2] | binding result [3] |
| --- | --- | --- | --- |
| VEGF-A (commercially available recombinant protein, Example 28) (from UniProt P15692 27-191) (ligand) | 0.01 to 0.05 µg/mL |  |  |
| B1 |  | ~0.02 µg/mL | no binding |
